Experimental findings from publication PMC8675206 are described below.

The target in one series is DNA-PKcs (Homo sapiens (HeLa cells), UniProt P78527 1-4128). Nature of the series: HX-MS on bead-captured DNA.
Another series deals with DNA-PKcs;Ku70;Ku80 (Homo sapiens (HeLa cells);Homo sapiens …, UniProt P78527;P12956;P13010 1-4128;2-609;2-732, ||). Nature of the series: pull-down.

Chain of DNA-PKcs (P78527 whole entry): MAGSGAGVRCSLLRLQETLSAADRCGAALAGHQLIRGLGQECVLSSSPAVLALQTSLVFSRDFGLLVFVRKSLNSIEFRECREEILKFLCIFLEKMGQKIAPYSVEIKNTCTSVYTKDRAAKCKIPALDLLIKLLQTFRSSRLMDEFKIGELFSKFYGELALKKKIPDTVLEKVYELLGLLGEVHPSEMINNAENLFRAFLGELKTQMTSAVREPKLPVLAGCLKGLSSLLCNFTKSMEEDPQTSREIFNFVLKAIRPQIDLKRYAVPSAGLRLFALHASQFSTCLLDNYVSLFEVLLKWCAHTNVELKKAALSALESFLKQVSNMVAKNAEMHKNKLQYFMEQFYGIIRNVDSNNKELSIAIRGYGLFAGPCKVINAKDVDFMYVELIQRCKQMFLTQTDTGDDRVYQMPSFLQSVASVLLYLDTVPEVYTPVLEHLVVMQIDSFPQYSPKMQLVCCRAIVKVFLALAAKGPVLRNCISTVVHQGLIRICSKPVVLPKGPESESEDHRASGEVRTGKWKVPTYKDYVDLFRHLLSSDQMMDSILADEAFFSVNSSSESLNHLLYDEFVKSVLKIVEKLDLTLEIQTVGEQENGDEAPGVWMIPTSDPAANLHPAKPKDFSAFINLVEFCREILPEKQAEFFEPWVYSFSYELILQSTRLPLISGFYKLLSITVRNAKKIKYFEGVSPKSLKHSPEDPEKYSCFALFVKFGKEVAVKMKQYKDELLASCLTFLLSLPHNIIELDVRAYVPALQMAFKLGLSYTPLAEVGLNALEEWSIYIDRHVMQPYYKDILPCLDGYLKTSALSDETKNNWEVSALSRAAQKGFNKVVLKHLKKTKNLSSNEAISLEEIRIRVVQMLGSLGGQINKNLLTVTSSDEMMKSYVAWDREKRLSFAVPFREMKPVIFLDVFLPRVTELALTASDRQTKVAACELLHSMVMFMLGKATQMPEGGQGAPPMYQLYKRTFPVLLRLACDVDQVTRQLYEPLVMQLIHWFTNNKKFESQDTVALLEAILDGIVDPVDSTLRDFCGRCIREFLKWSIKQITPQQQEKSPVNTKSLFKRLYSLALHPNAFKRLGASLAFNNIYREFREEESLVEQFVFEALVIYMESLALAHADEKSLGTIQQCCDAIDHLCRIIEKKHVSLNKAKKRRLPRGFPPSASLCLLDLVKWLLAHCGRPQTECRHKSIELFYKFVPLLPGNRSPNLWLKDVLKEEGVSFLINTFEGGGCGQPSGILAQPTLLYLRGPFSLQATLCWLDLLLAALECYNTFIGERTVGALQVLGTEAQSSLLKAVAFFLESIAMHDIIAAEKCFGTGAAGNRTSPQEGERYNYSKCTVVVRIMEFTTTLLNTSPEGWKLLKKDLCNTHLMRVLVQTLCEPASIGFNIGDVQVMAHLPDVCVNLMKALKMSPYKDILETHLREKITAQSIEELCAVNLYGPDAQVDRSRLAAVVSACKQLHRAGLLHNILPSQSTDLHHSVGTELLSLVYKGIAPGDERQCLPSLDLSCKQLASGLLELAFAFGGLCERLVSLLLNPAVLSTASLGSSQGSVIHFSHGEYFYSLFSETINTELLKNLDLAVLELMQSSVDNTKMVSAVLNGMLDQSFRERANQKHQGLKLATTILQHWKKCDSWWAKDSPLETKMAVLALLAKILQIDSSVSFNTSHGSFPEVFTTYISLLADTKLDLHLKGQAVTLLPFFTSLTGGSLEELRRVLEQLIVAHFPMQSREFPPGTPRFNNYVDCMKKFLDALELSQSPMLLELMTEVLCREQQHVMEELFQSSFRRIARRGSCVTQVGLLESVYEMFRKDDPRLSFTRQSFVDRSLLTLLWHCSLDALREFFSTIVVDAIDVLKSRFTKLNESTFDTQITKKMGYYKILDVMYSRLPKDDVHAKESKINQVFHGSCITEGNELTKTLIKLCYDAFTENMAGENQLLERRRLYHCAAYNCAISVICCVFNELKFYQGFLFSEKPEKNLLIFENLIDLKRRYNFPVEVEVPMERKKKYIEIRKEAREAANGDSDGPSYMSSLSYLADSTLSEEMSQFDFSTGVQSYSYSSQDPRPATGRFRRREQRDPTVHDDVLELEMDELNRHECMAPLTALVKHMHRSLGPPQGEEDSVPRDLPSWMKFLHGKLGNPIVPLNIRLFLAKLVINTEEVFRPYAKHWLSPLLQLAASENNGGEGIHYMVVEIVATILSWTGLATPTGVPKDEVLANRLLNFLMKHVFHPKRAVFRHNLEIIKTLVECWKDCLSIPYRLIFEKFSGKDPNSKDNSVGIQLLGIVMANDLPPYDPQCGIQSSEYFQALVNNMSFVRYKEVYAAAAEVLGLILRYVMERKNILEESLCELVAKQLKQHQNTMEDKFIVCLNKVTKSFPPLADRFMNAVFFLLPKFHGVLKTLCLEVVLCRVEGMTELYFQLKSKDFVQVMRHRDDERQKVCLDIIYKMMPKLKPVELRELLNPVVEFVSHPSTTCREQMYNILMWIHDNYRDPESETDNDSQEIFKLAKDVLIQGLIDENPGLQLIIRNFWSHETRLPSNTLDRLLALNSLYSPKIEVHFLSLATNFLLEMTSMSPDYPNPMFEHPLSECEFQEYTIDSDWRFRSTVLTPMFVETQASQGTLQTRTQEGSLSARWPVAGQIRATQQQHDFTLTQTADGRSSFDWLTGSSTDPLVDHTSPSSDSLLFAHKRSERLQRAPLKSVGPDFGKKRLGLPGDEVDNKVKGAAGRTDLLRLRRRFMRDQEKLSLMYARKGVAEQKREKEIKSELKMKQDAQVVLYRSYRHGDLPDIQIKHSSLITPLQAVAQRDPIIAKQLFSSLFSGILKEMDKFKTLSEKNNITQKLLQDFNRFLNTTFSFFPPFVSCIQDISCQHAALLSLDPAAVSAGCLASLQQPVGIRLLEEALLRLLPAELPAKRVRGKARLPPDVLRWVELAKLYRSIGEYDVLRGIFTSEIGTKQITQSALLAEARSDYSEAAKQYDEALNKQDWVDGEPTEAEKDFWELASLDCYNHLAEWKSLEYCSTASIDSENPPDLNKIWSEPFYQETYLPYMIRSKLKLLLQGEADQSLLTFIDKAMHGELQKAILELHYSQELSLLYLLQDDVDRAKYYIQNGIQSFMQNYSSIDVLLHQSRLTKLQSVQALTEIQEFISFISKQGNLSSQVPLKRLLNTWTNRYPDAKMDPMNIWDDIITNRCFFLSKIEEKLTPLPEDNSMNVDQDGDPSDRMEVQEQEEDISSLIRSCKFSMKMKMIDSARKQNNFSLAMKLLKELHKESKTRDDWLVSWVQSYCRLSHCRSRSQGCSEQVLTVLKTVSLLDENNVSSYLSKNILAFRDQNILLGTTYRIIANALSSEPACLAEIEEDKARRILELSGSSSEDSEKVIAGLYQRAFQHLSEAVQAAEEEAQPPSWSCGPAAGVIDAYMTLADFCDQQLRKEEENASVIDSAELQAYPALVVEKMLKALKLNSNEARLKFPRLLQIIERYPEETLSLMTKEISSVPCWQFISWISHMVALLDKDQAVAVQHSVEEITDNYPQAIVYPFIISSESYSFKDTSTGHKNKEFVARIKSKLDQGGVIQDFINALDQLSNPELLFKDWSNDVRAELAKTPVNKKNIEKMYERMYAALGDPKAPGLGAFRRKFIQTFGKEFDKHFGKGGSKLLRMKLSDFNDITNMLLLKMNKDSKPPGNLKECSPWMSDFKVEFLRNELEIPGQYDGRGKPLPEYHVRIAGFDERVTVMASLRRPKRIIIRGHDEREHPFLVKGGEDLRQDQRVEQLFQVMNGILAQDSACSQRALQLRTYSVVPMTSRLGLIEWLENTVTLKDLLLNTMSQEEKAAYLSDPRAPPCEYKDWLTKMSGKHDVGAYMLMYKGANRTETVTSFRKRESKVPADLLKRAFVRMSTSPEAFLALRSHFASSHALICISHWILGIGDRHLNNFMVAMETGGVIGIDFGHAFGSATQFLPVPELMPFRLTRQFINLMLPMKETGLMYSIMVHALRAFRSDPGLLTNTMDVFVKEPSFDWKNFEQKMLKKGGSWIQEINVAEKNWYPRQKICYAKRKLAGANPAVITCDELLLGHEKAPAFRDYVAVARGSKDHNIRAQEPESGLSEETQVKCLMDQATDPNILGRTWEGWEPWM

B1: 25bp blunt (dsDNA)
DNA 1: AAGCTTGCATGCCTGCAGGTCGACC
DNA 2: GGTCGACCTGCAGGCATGCAAGCTT
As for B1, the binding result in the series with DNA-PKcs was “binds”.

B2: 100bp blunt (dsDNA)
DNA 1: GCACAATCTTCTCGCGCAACGCGTCAGTGGGCTGATCATTAACTATCCGCTGGATGACCAGGATGCCATTGCTGTGGAAGCTGCCTGCACTAATGTTCCG
DNA 2: CGGAACATTAGTGCAGGCAGCTTCCACAGCAATGGCATCCTGGTCATCCAGCGGATAGTTAATGATCAGCCCACTGACGCGTTGCGCGAGAAGATTGTGC
On to B2, for which the binding result with DNA-PKcs;Ku70;Ku80 was “binds”.
